Series [1] relates to primary human umbilical vein endothelial cells (HUVEC). The series is described as follows: In vitro normal cell cytotoxicity. It counts as cell-based. The following applies: Homo sapiens, 72 h. The protocol:
(§1) In vitro normal cell cytotoxicity. The in vitro cytotoxic activity of M53-PEG24-CEN09-106, PEG24-CEN09-106, M53-PEG24-CEN-319, PEG24-CEN-319, proscillaridin and digitoxin against dysadherin positive primary normal human cells and a dysadherin positive human non-small cell lung carcinoma (NSCLC) cell line were tested and compared. The cells used were primary human renal epithelial cells (HREpC), primary human umbilical vein endothelial cells (HUVEC), primary human umbilical artery endothelial cells (HUAEC), and the A549 NSCLC cells. The primary cells were obtained from PromoCell GmbH, Heidelberg, Germany, and the NSCLC cell line A549 was obtained from ATCC. Primary renal epithelial cells were grown in Renal Epithelial Cell Growth Medium 2 (PromoCell GmbH, Heidelberg, Germany). Primary endothelial cells were grown in Endothelial Cell Growth Medium 2 (PromoCell GmbH, Heidelberg, Germany). The NSCLC cell line was grown in RPMI-1640 (HyClone, Thermo Scientific) supplemented with 10% fetal bovine serum. HREpC, HUVEC, HUAEC, and A549 cells were plated in 384 well plates at 1250, 1875, 2500, and 1250 cells/well (respectively) and allowed to incubate for 24 hrs at 37° C., 5% CO2, and 100% humidity. Various concentrations of conjugates M53-PEG24-CEN09-106 and M53-PEG24-CEN-320 and PEG24-CEN09-106 and PEG24-CEN-320 were added to the wells in a total volume of 5 uL of media and the plates were incubated for an additional 72 hrs. After 72 hrs of exposure to agent, cell viability was evaluated using the Cell Titer-Glo Luminescent Cell Viability Assay (Promega, Madison, Wis.) according to the manufacturer's instructions. Luminescence measurements were performed using a Wallac Victor^2 Model 1420-041 assay plate reader (Perkin Elmer, Gaithersburg, Md.). EC50 values for each test agent were determined using GraphPad Prism 5 software.

Series [2] concerns primary human renal epithelial cells (HREpC). Briefly: In vitro normal cell cytotoxicity. It counts as cell-based. The following applies: 72 h. The procedure:
as §1

Series [3] has as its system primary human umbilical artery endothelial cells (HUAEC). The series is described as follows: In vitro normal cell cytotoxicity. In kind it is cell-based. The following applies: Homo sapiens, Endothelial cell, 72 h. The protocol:
as §1

Series [4] has as its system A549 NSCLC cells. The series is described as follows: In vitro normal cell cytotoxicity study, carcinoma comparator line. To be noted: Homo sapiens, A549, 72 h. In kind it is cell-based. The protocol:
as §1, with “The NSCLC cell line was grown in RPMI-1640 (HyClone, Thermo Scientific) supplemented with 10% fetal bovine serum. HREpC, HUVEC, HUAEC, and A549 cells were plated in 384 well plates at 1250, 1875, 2500, and 1250 cells/well (respectively) and allowed to incubate for 24 hrs at 37° C., 5% CO2, and 100% humidity. Various concentrations of conjugates M53-PEG24-CEN09-106 and M53-PEG24-CEN-320 and PEG24-CEN09-106 and PEG24-CEN-320 were added to the wells in a total volume of 5 uL of media and the plates were incubated for an additional 72 hrs.” left out

Series [5] is described as follows: Pharmacokinetics and serum stability, antibody and drug specific ELISA. In kind it is in vivo, Balb/c mice. To be noted: Balb/c mice, EDC drug loading of 3. The protocol:
The steroid drug pharmacokinetics of M53-PEG24-CEN09-106 were measured using the drug specific ELISA described below. The comparison between the two ELISA results (antibody concentrations minus drug concentrations) was used to determine the rate of drug breakdown and thus examine M53-PEG24-CEN09-106 stability.
Serum was isolated from blood samples acquired by retro-orbital blood collection at 1, 2, 4, 8, 16, 26, and 40 days post-injection. […] Plasma concentrations of the steroid drug in M53-PEG24-CEN09-106 were measured as follows. Antigen coated ELISA plates were washed (×3) with PBS pH 7, blocked 30 min with PBS pH 7 containing 1% NFDM (PBS+NFDM), and then washed (×3) with PBS, pH 7. Diluted serum samples and standard curves of M53-PEG24-CEN09-106 were prepared in the above blocking buffer and applied to coated wells, incubated 30 min at RT, and the wells were washed (×3) with PBS, pH 7. Biotinylated 25C2E3 (a monoclonal IgG1 antibody specific for the steroid portion of PEG24-CEN09-106 and conjugated to biotin [Thermo Scientific, PN 21911]) was diluted to 100 ng/mL in PBS+NFDM and added (100 uL) to each well, incubated 30 min at RT, and the wells washed (×3) with PBS, pH 7. PNPP at 1 mg/mL in 1M DEA with 50 mM MgCl2, pH 9.8 was added (100 uL per well), and the absorbance at 405 nm was determined using a Wallac Victor^2 Model 1420-041 assay plate reader (Perkin Elmer, Gaithersburg, Md.) every 5 minutes for a total of 6 reads.
For both ELISAs, absorbance values from known standards were plotted as absorbance over time, generating a linear slope for each concentration. The slopes generated were then plotted against the respective concentrations of the standards, creating a second linear plot. The absorbance values for the unknown serum samples were plotted over time, establishing a slope for unknown sample. The linear estimate from the slope versus concentration plot was then used to extrapolate concentrations for each unknown sample based on their slope.
To determine serum stability of the intact EDC (drug release from the antibody over time) in these samples, the ratio of the slopes of serum decay of the drug portion to the serum decay of the antibody portion were calculated.

The test system of series [6] is human cell lines H460, A549, A375, PANC1, and H929. Briefly: In vitro cancer cell cytotoxicity, statements over the cell line panel. In kind it is cell-based. The following applies: at the highest concentrations tested. The text has this:
(§2) EDCs were constructed using linker-ready agents PEG24-CEN09-106, PEG24-CEN09-107, PEG24-CEN10-110 and PEG24-CEN-319. As described in Example 1, linker-ready agent PEG24-CEN-319 contain digitoxigenin while the others contain scillarenin. Linker-ready agents PEG24-CEN09-106, PEG24-CEN09-107, PEG24-CEN10-110 all use different linkers. Specifically, PEG24-CEN09-106 and PEG24-CEN09-107 have different sugars in the linker, while PEG24-CEN10-110 contains a longer linker that includes a primary amine.
(§3) All of the cell lines below, except H520, express the Na,K-ATPase with the dysadherin subunit and so present the target of the antibody and drug in close proximity.

Series [7] can be described thus: Pharmacokinetics with varying drug loading (antigen binding ELISA). In kind it is in vivo. The following applies: unconjugated antibody, 1 mg/kg tail vein, SCID beige mice. The protocol: Serum was isolated from blood samples taken by retro-orbital blood collection at 1 hour, and 1, 2, 3, 6, and 15 days post-injection. Blood was collected into heparin coated tubes followed by centrifugation (5,000×g, 5 minutes) to isolate plasma.
Antigen capture plates that were prepared by coating wells of 96 well clear bottom ELISA plates with CENP018 (SEQ ID NO: 17) conjugated to BSA at 400 ng BSA-peptide conjugate per well in 100 uL of 200 mM carbonate buffer, pH 9.6 overnight at 4° C. Antigen coated ELISA plates were washed (×3) with PBS pH 7, blocked 30 min with PBS pH 7 containing 1% NFDM (PBS+NFDM), and then washed (×3) with PBS, pH 7. […] Goat anti-mouse IgG alkaline phosphatase (cat. number: A1418, Sigma-Aldrich, St. Louis, Mo.) was diluted 1:15,000 in PBS+NFDM and added (100 uL) to each well, incubated 30 min at RT, and the wells washed (×3) with PBS, pH 7. PNPP at 1 mg/mL in 1M DEA with 50 mM MgCl2, pH 9.8 was added (100 uL per well), and the absorbance at 405 nm was determined using a Wallac Victor^2 Model 1420-041 assay plate reader (Perkin Elmer, Gaithersburg, Md.) every 5 minutes for a total of 6 reads. Absorbance values from known antibody concentration standards were used to determine the concentration of antibody in the serum samples.

The test system of series [8] is A375. The series is described as follows: In vitro cancer cell cytotoxicity (CellTiter-Glo cell viability). It counts as cell-based, human. To be noted: A375 cells, 3 days incubation.
Excerpt: as §2, §3

Series [9] deals with PANC1. The series is described as above. It counts as cell-based, human. The following applies: PANC cells, 3 days incubation.
Excerpt: as §2, §3

Series [10] has as its system A549. The description is as above. It counts as cell-based, human. To be noted: A549 cells, 3 days incubation.
Excerpt: as §2, §3

Series [11] concerns the target T1, human dysadherin (human, UniProt Q96DB9 22-178).
T1 chain: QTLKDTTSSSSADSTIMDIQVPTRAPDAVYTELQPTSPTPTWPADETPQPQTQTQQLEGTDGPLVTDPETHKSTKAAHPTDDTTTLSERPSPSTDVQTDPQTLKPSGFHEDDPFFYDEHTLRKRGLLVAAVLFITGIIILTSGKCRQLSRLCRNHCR
Briefly: cell-based or functional assay.

Series [12] deals with T1, human dysadherin. The series is described as follows: cell-based or functional assay.
Series [13] addresses T1, human dysadherin. Briefly: cell-based or functional assay.
The target of series [14] is T2, peptide CENP018 (human, not fully specified).
T2 construct: also called 17
T2 peptide: PTRAPDAVYTELQC
The series is described as follows: immunoaffinity chromatography on CENP018 coupled to SulfoLink resin.

Ends that are not written are not given here. Some results are limits rather than exact numbers.

Regarding `C[C@H]1O[C@@H](O[C@H]2[C@@H](O)C[C@H](O[C@H]3[C@@H](O)C[C@H](O[C@H]4CC[C@@]5(C)[C@H](CC[C@@H]6[C@@H]5CC[C@]5(C)[C@@H](C7=CC(=O)OC7)CC[C@]65O)C4)O[C@@H]3C)O[C@@H]2C)C[C@H](O)[C@@H]1O` [Digitoxin], the EC50 in series [1] was 39 nM; in series [2], 135 nM; in [3], 47 nM; in series [4], 17 nM.

For `C[C@@H]1O[C@@H](O[C@@H]2C=C3CC[C@@H]4[C@H](CC[C@]5(C)[C@@H](c6ccc(=O)oc6)CC[C@]45O)[C@@]3(C)CC2)[C@H](O)[C@H](O)[C@H]1O` [Proscillaridin], the EC50 in series [1] stood at 5.6 nM; in [2], 10 nM; in [3], 5.6 nM; in series [4] it was 2.1 nM.

B1: M53 (antibody)
heavy: EVQLVESGGGLVQPKGTLKLSCAASGFSFNTHAMNWVRQAPGKSLEWVARTMSKSNNYATYYADSVKDRFIIRADDSQSMLYLQMNNLKTEDTAMYYCVRDDPKRGMDYWGQGTSVTVSSAKTTPPSVYPLAPGSAAQTNSMVTLGCLVKGYFPEPVTVTWNSGSLSSGVHTFPAVLQSDLYTLSSSVTVPSSTWPSETVTCNVAHPASSTKVDKKIE
light: GIVMSQSPSSLAVSVGEKVTMSCKPSQSLLYSRNQKIYLAWYQQKPGQSPKLLIYWASTRESGVPDRFTGSGSGTDFTLIISSVRAEDLAVYYCQQYYNYPLTFGAGTKLELKRADAAPTVSIFPPSSEQLTSGGASVVCFLNNFYPKDINVKWKIDGSERQNGVLNSWTDQDSKDSTYSMSSTLTLTKDEYERHNSYTCEATHKTSTSPIVKSFNR
As to B1, the “serum half-life of the antibody portion” value was 11.9 days in [5] (1 mg/kg tail vein) and 10.3 days in series [5] (10 mg/kg tail vein). Further, the “cytotoxicity of antibody alone” value in series [6] was “inactive”. The “serum half-life of detectable (by antigen binding) antibody” value in [7] is “approximately 6 days”. The concentration giving a half-maximal response (EC50) in series [8] is above 2000 nM; in series [9], above 5000 nM; in series [10] it was above 5000 nM.

B2: M53-PEG24-CEN09-106 (antibody, V domains shown)
VH: EVQLVESGGGLVQPKGTLKLSCAASGFSFNTHAMNWVRQAPGKSLEWVARTMSKSNNYATYYADSVKDRFIIRADDSQSMLYLQMNNLKTEDTAMYYCVRDDPKRGMDYWGQGTSVTVSS
VL: GIVMSQSPSSLAVSVGEKVTMSCKPSQSLLYSRNQKIYLAWYQQKPGQSPKLLIYWASTRESGVPDRFTGSGSGTDFTLIISSVRAEDLAVYYCQQYYNYPLTFGAGTKLELKR
modifications: PEG24-CEN09-106 on reduced cysteine thiols; positions not given; PEG24-CEN09-106 (scillarenin 4-amino-xyloside PEG24 maleimide linker-drug) on reduced cysteine thiols; positions not given
On to B2, for which, in series [11], the “EC50, in vitro activity against A549 cells” value turned out to be 1.9 nM. Moreover, in series [12], the “EC50, cytotoxicity (CellTiter-Glo cell viability), A375 cells” value was found to be 0.4 nM; the “EC50, cytotoxicity (CellTiter-Glo cell viability), A549 cells” value came out at 0.2 nM; the “EC50, cytotoxicity (CellTiter-Glo cell viability), H460 cells” value turned out to be 0.3 nM; the “EC50, cytotoxicity (CellTiter-Glo cell viability), H929 cells” value was 0.1 nM. The “EC50, cytotoxicity (CellTiter-Glo cell viability), PANC cells” value in [12] is 0.3 nM. In addition, the “EC50, cytotoxicity, A549 cells (drug alone, combination study)” value in [13] is 0.3 nM.

B3: anti-FXYD5 scFv003 (scFv)
scFv: ECQLVESGGGLVQPKGTLKLSCAASGFSFNTHAMNWVRQAPGKSLEWVARTMSKSNNYATYYADSVKDRFIISRDDSQSMLYLQMNNLKTEDTAMYYCVRDDPKRGMDYWGQGTSVTVSSGGGGSGGGGSGGGGSGIVMSQSPSSLAVSVGEKVTMSCKPSQSLLYSRNQKIYLAWYQQKPGQSPKLLIYWASTRESGVPDRFTGSGSGTDFTLIISSVRAEDLAVYYCQQYYNYPLTFGAGTKLELK
notes: Unconjugated scFv, purified from E. coli lysate on CENP018 resin; also called CENscFv003
For B3, the binding result in series [14] is reported as “binds”.

The values are drawn from patent US20140079722A1, “EXTRACELLULAR TARGETED DRUG CONJUGATES” (CENTROSE, LLC, priority 2011, published 2014).
